Test results published in patent US8734803 (IBIO, dated 2014).

What was measured:
Assay in all cases: cell-based or functional assay
[1] = target: T1, neuraminidase of influenza A/Vietnam/1203/04 (H5N1, clade 1) on live virus (influenza A/Vietnam/1203/04 (H5N1), UniProt Q6DPL2 1-449)
[2] = target: T1, neuraminidase of influenza …; remark: listed apart in the source
[3] = target: NA (neuraminidase) used in the NA activity inhibition experiments of Example 9

T1 sequence (Q6DPL2 whole entry): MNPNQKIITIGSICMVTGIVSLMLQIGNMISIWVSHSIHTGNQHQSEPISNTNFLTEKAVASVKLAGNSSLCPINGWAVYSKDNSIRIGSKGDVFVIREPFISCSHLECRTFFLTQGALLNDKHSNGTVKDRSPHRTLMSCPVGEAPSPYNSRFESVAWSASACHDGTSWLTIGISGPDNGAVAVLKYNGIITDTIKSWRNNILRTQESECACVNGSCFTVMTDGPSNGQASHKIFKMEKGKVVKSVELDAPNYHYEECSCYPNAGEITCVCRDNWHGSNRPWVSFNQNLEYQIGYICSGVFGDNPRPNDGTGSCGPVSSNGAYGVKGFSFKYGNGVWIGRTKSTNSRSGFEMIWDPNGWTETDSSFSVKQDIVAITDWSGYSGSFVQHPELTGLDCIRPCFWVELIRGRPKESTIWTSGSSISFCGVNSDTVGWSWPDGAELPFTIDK

B1: 2B9 anti-N1 neuraminidase monoclonal antibody (antibody, V domains shown)
VH: QVQLQQSGAELVRPGTSVKMSCKAAGYTFTNYWIGWVKQRPGHGLEWIGDIYPENDFSNYNEKFKDKATLTADTSSRTAYMQLSSLTSEDSAIYYCVRANEGWYLDVWGTGTTVSVSS
VL: DIQMTQSPASLSESVGETVTITCRASENIYSYLAWYQQKQGKSPQLLVYFAKTLAEGVPSTFSGSGSGTLFSLKINSLQPEDFGNYYCQHHYGTPYTFGGGTKLEIKR
B1 was tested, and the “NA assay IC50 (Antibody IC50)” value [1] was under 1 µg/mL, the “IC50 of 2B9 against various influenza strains (NA inhibition)” value [2] was at most 1 µg/mL and the “IC50, inhibition of NA activity” value [3] was 0.82 µg/mL.
